In US20020102215A1:

Molecular target: thiolated anti-CD34 antibody conjugated to gas-filled microbubbles encapsulated with DSPS and comprising DSPE-PEG2000-MAL
Experiment: flow cytometry of anti-CD34-conjugated microbubbles after incubation with the FITC-labelled secondary antibody and washing

% of microbubble population fluorescent: 98%
Substance: FITC-conjugated goat-anti-mouse antibody
